Laboratory results: the nanobody polyreactivity screen of Harvey et al. (2022)

Assay: yeast display, Sf9 membrane polyspecificity reagent, FACS + sequencing; frameworks hold sequencing errors
Outline: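 Synthetic nanobody libraries on Saccharomyces cerevisiae BJ5465 were galactose-induced for 36–48 hours, stained 1 hour at 4 °C with 10% biotinylated, detergent-solubilized Sf9 membrane reagent and enriched on streptavidin microbeads. FACS then separated cells into low and high (top ~1%) gates by anti-HA (expression) and streptavidin (reagent binding) fluorescence. Genes were colony-PCR amplified, MiSeq 2 × 250 sequenced and CDR-length filtered. A clone's polyreactivity label is that of its gate of origin.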

Sequence | polyreactivity (PSR sort gate)
QVQLVESGGGLVQAGGSLRISCAASGRTFPGNAMGWYRQAPGKERELVAAISWSGTRTYYADSVKGRFTISRDNAKNTVYLQMNSLKPEDTAVYYCNVVVKGAWDYYPYDYWGQGTQVTVSS | high polyreactivity
QVQLVESGGGLVQAGGSLRLSCAASGYTFQYYTMGWYRQAPGKERELVAAISSSGGRTYYADSVKGRFTISRDNAKNTVYLQMNSLKPEDTAVYYCAATYSYRSDYYSWGQGTQVTVSS | high polyreactivity
QVQLVESGGGLVQAGGSLRLSCAASGSTFPPNTMGWYRQAPGKERELVAAITQRGGNTYYADSVKGRFTISRDNAKNTVYLQMNSLKPEDTAVYYCATRYRYKGYYGQYEYWGQGTQVTVSS | high polyreactivity
QVQLEESGGGLVQAGGSLRLSCAASGRNFYYNAIGWYRQAPGKERELVATITRAGGTYYADSVKGRFTISRDNAKNTVYLQMNSLKPEDTAVYYCAKRHPIVDDYKGDYWGQGTQVTVSS | low polyreactivity
QVQLVESGGGLVQAGGSLRLSCAASGFTFAGYAMGWYRQAPGKERELVAAINRGGSTYYADSVKGRFTISRDNAKNTVYLQMNSLKPEDTAVYYCAKAQRFYGGRMGYWGQGTQVTVST | low polyreactivity
QVQLVESCGGLVQAGGSLRLSCAASGFIFSQNAMGWYIQAPGKEREIVAVISARGGRTYYADSVKGRFTISRDNAKNTVYLQMNSLKPEDTAVYDCARRDFWWSRRIFGYWGQGTQVTVSS | high polyreactivity
QVQLVESGGGLVQAGGSLRLSCAASGYILWNAIGWYRQAPGKERELVAAITSGGSTYYADSVKGRFSISRDNAKNTVYLQMNSRKPEDTAVYDCNQESYFDTYRRYDSWGQGTQETVSS | low polyreactivity
QVQLVESGGGLVQAGGSLRLSCAASGFIFTSYARGWYRQAPGKDRELVAAITRSGASTSYADSVKGRFTISRDNAKNTVYLQMNSLKPEDTAVYYCAAKAPLPRYYVPRYDYWGQGTQVTVSS | high polyreactivity
QVQLVESGGGLVQAGGSLRLSCAASGRIFKLYAMGWYRQAPGKERELGAAISTSAGSTNYADSEKGRFTISRDNAKNTVYLQMNSLKPEDPAVYYCAVAGVSTYYTYYYWGQGTQVTVSS | low polyreactivity
QVQLVESGGGLVQAGGSLRLSCAASGRIFRANAMGWYRQAPGKEGELVAAISRSAGSTYYADSVKGRFTISRDKAKNTVYLQMNSLKPEDTAVYYCAAVVRNPGTYDYWGQGTQVTVSS | high polyreactivity
QVQLVESGGGLVQAGGSLRLSCAASGIIIPYYAMGWYRQAPGKERELVAAISSGGSTNYADSVKGRFTISRDNAKNTVYLQMNSLKPEDTAVYYCAAKYTSYASWPIWVVDQFDYWGQGTQVTVSS | low polyreactivity
QVQLVESWGGLVQAGGSLRLSCAASGFTFRYYAMGWYRQAPGKERELVAAITGSGTRTYYADSVKGRFTISRDNAKNTVYLQMNSLKPEDTAVYYCNAPRQPRWFDYWGQGTQVTVSS | high polyreactivity
QVQLVESGGGLVQAGGSLRLSCAASGSIFTFYAMGWYRQAPGKERELVAAISKGGDRTYYADSVKGRFTISRDNAKNTVYLQMNSLIPEDTAVYYCARLVRPGRFGDGDYWGQGTQVTVSS | low polyreactivity
QLQLVESGGGLVQAGGSLRLSCAASGSIFFNYTMGWYRQAPGNERELVAAINSSGGRTNYADSVKGRFTISRDNAKNTVYLQMNSLKPEDTAVYYCAAGQSRYRELEYWGQGTQVTVSS | low polyreactivity
QVQLVESGGGLVQAGGSLRLSCAASGSIFAVYAMGWYRQAPGKERELVAAISVSGGRTYYADSVKGRFTISRDNAKNTVYLQMNSLKPEDTAVYYCAARSLSYYRSRAAQYGWGYYYWGQGTQVTVSS | high polyreactivity
QVQLVESGGGLVQAGGSLRLSCAASGSIFNYYAMGWYRQAPGKERELVAAISSGDTTYYADSVKGRFTISRDNAKNTVYLQMNSLKPQDTAVYYCAAKPRSQVRYGYWGQGTQVTVSS | low polyreactivity
QVQLVESGGGLVQAGGSLRLSCAASGSTFRSYAMGWYRQAPGKERELVAAITSSGGRTYYADSVKGRFTISRDNAKHTVYLQMNSLKPEDTAVYYCAARTYSWGDWGQGTQVTVSS | high polyreactivity
QVQLVESGGGLVQAGGSLRLSCAASGFTFKYYAMGWYRQAPGKERELVAAISSRGGSTYYADSVKGRFTISRDKAKNTVYLQMNSLKPEDTAVYYCAAYYRTGSIWYAIFSDDYWGQGTQVTVSS | high polyreactivity
QVQLVESGGGLVQAGGSLRLSCAGSGSIFGRYVVGWYRLAPGKEREFVAAITYSGSSTYYADSVKWRFTISRDNAKNTVYVQINSLKPEDTAVYYCNTYPRSYYWMGYWGQGTQVTVSS | high polyreactivity
QVQLVESGGGLVQAGGSLRLSCAASGSIFDNNAMGWYRQAPGKERELVAAIRRTSTTYYADSVKGRFTISRDNAKNTVYLQMNSLKPEDTAVYYCAATYGSGYWYPRYYYWGQGTQVTVSS | high polyreactivity
QVQLVESGGGLVQAGGSLRLSCAASGRIFGLYAMGWYRQAPGKERELVAAISRGGGSTYYADSVKGRFTISRDNAKNTVYLQMNSLKPEDTAVYYCATGLGYFSRLDYWGQGTQVTVSS | low polyreactivity

Sequence | polyreactivity (PSR sort gate)
QVLLQESGGGLVQAGGSLRLSCAASGTISTDIRMGWYRLAPGKEREFVASIDGCSTTYYADSVKGRFTISRDNAKNTVYLQMNSLKPEDTAMYYCSAREATEFYLFYWGQGTQVTVSS | low polyreactivity
QVQLVESGGGLVQAGGSLRLSCAASGYTFPRNAMGWYRQEPGKERELVAAISASGGRTSYADSVKVRFTISRDNAKNTVYLQMNSLKPEDTAVYYCAAPFLRRIGYPRSYDYWGQGTQVTVSS | high polyreactivity
QVQLVESGGGLVQAGGSLRLSCAASGYIFGYNAMGWYRPAPGKERELVAAISRSAGRTYYADSVKGRFTISRDNAKNTVYLQMNSLKPEDSAVYYCAAQSYWLGYEYWGQGTQVTVSS | high polyreactivity
QVQLVESGGGLVQAGGSLRLSCAASGRIFYTYAKGLSRQAPRKERELVATISNSGGSTYYADSVKGRFTISRDNAKNTVYLQMNSLKPEDTAVYSCAKDERAAPSASYAYYYWGQGTLVTVSS | low polyreactivity
QVQLVESGGGLVQAGGSLRLSCAASGFIFDAYVMGWYRQAPGKERELVAAITSSGGSTYYADSVKGRFTISRDNAKNTVYLQMNSLKPEDTAVYYCAATYWPWFVGYTYDLDYWGQGTQVTVSS | low polyreactivity
QVQLVESGGGLVQAGGSLRLSCAASGRTFKPYGMGWYRQAPGKERELVAAISSRGDITYYADSVKGRFTISRDNAKNTVYLQMNSLKPEDTAVYYCNADLYRKRAWVRRDGSWGQGTQVTVSS | low polyreactivity
QDQLVESGGGLVQAGGSLRLSCAASGLIFNVNNMGWYRQAPGKDRELVAAISWSGTSTYYADSVKGRFTISRDKAKNTVYLQMNSLKPEDTAVYYCAAYNHRWEYEYWGQGTQVTVSS | high polyreactivity
QVRLVESGGGLVQAGGSLRLSCAASAFTFDSYAMGWNRQAPGKERELVAAITWSGGSTYYADSVKGRFTISRDIAKNTVYFQMNSLKPEDTAVYYCNVDRYDGDYCGQGTQVTVSS | high polyreactivity
QVQLVESGGGLVQAGGSLRLSCAASGSIFSFYAMGWYRQAPGKERELVATISSGDNTNYADSVKGRFTISRDNAKNTVYLQMNSLKPEDTAVYYCAADAWGVDREYDYWGQGTQVTVSS | low polyreactivity
QVQLVESGGGLVQAGGSLRLSCVPTDMGWYRQAPGKERELVATISLSDGNTYYADSVKGRFTISRDNAKNTVYLQMNSLKPEDTAVYYCNALHTWHQTYDYWGQCTQVTVSS | low polyreactivity
QVQLVESGGGLVQAGGILRLSCAASGRTLDYSAMGWYRQAPGKERELVASITSGGSTNYADSVKGRFTISRDTAKNTVYLQMNSLKPEDTEVYYCAADSAFYRDVKSNYWGQGTQVTVSS | low polyreactivity
QVQLVESGGGLVQAGGSLRLSCAASGRIFGKNDMGWYRQAPGKEREFVATIDWSGGSTYYADSVKGRFTISRDNAKNTVYLQMNSLKPEDTAVYYCAASGWNRYLFDYWGQGTQVTVSS | low polyreactivity
QDQLVESGGGLVQAGGSLRLSCAASGRTFDSYAMGWYRQAPGKERELVAAIDADSVKGRFTISRDNAKNTVYLQMNSLKPEVTAVYYCAKPSRWGWTGFYAYEYWGQGTQVTVSS | low polyreactivity
QDQLVESGGGLVQEGRILRLISADSGRISRFNAMGWYRPAPGKERELVAAITRGASTYYADSVKGRFTISRDNAKNTVYLEMNSVKPEVTAVYYCAAAPSYSWTSVARYFYWGQGTQVPVSS | high polyreactivity
QVQLVESVGGLVKAGGRLRLSCAASGRIFPPNALACSRQAPGKERELVADNNFSGDSTYYADSVKGRFTISRDNAKNTVYLQMNSLKPEDTSVYYCAAVISLVSYYYWGQATQVTVSS | low polyreactivity
QVHLVESGGGLVQAGGSLRLSCAASGFTFDYYTMGWYRPAPGKERELVAAITSSAGSTDYADSVKGRFTISRDNAKNTVYLQMNSLKPEDTAVYYCNADFLYGTYDYWGQGTQVTVSS | low polyreactivity
QVQLVESGGGLVQAGGSLRLSCAASGFIFRAYAKRWYRPAPGKERELFAALTKRSGTTYSADSVKRRFTISRDNAKNTVYVQMNSLKPEDTAVYFCAAKTLYNSGTQDRAMGYWGQGTQVTVSS | high polyreactivity
QVQLVESGGGLVQAGGSLRLSGAASGRTLYGYAMGWYRQAPGKERELVARITGRDGSTDYADSVKGRFTISRDNAKNTVYFPMNSLKPEETAVYSCNARVRFHWYRSDYWGQGTEVTVSS | high polyreactivity
QVQLVESGGGLVQAGGSLRLSFAAYGSIFWGYAMGWYRQAPGKERELVAAISSSGGNTYYADSVKGRFTISRDNAKNTVYLQMNSLKPEDTAVYYCAATPEFYGGKITDVYSQYGYWGQGTQVTVSS | low polyreactivity
QVQLVESGGGLVQAGGSLRLSCAASGSTSWIYAMGWYRQAPGQERELVAAISGRDGSTNYADSVKGRFTISRDNAKNTVYLQMNSLKPEDTAVYYCASYLYKSRYLPEYDYWGQGTQVTVSS | high polyreactivity
